From patent KR20140095558A (dated 2014)

B1: SC06-089 (scFv)
scFv: EVQLVETGGGLVQPGGSLRLSCAASGFTFSSYSMNWVRQAPGKGLEWVSFISSSSSTIYYADSVKGRFTIARDNAKNSLYLQMNSLRDEDTAVYYCARPVGTGISLFHAFDIWGQGTMVTVSSGTGGSGGTGSGTGGSTQSVLTQPPSVSVAPGQTARITCGGNNIGSKYVHWYQQKPGQAPVLVVYDDSDRPSGIPERFSGSNSGNTATLTISRVEAGDEADFYCQVWDGSSDPVVFGGGTKLTVL
B2: SC06-087 (scFv)
scFv: EVQLVESGGGLVKPGGSLRLSCAASGFTFSSNSMNWVRQAPGKGLEWVSFISSSSTYIYYADSVKGRFTISRDNAKNSLYLQMNSLRAEDTAVYYCARESAAGISYDAFDIWGQGTMVTVSSGTGGSGGTGSGTGGSTQSALTQPASVSGSPGQSITISCTGTSSDVGGYKYVSWYQQHPGKAPKLMIYEVSNRPSGVSNRFSGSKSGSTASLTISGLQAEDEADYYCSSYTSSSTLGVFGTGTKVTVL
B3: SC05-157 (scFv)
scFv: EVQLVESGAEVKKPGESLKISCKGSGYSFTNYWIGWVRQMPGKGLEWMGIVYPGDSDTRYSPSFQGQVTISADKSISTAYLQWSSLKASDTAVYYCARRMAVAGSDAFDIWGQGTMVTVSSGTGGSGGTGSGTGGSTQAVLTQPSSASGTPGQTVTISCSGSTSNIGSHNVNWYQHLPGTAPKLLIYINNKRPSGVPDRFSGSKSGSSASLAISGLQSEDEADYYCAAWDDSLRRPVFGGGTQLTVL
B4: SC06-092 (scFv)
scFv: EVQLVESGGGLVQPGRSLRLSCTGSGFTFGDYAMSWFRQAPGKGLEWVGFIRNKAYGGTAEYAASVKDRFIISRDDSKSIAYLQMNSLKTEDTAVYYCVRREYDTGWLDYWGQGTLVTVSSGTGGSGGTGSGTGGSTQSALTQPPSASGSPGQSVTISCTGTSSDVGGYNYVSWYQRHPGKAPKLMIYDVTDRPSGVSNRFSGSKSGNTASLTISGLQAEDEADYYCSSYTSSSTSAVFGGGTKLTVL
B5: SC06-242 (scFv)
scFv: EVQLVESGPGLVKPSETLSLTCTVSGGSISSYYWSWIRQPPGKGLEWIGYIYYTGTTNYNPSLNSRVTISADTSKNQFSLKLSSVTAADTAVYYCARGGQTAGVWGKGTTVTVSSGTGGSGGTGSGTGGSTQSVLTQPPSVSVAPGQTARITCGGYNIGRKSVHWYQQKPGLAPVLVVYDNSDRPSGIPARFSGSNSGNTATLTISGTQAMDEADYYCQAWDRGTAVFGTGTKVTVL
B6: SC06-409 (scFv)
scFv: EVQLVQSGAEVKKPGESLKISCKGSGYSFTNYWIGWVRQMPGKGLEWMGIIYPGDSDTRYSPSFQGQVTISADKSISTAYLQWSSLKASDTAMYYCARHTQNKNGMNTFDIWGQGTMVTVSSGTGGSGGTGSGTGGSTQSALTQPPSASGSPGQSVTISCTGTSSDIGGYNYVSWYQQHPGKAPKLMIYEVSNRPPGVSNRFSGSKSGNTASLTISGLQAEDEADYYCSSYSTTTTRVIFGGGTKLTVL
B7: SC06-241 (scFv)
scFv: EVQLVESGGGLVQPGRSLRLSCAASGFTFRSYAMYWVRQAPGKGLEWLALISHDASKMFYADSVKGRFTISRDNSKNTLSLQMNSLTIEDTAVYYCVRERTGYYGAYWGQGTLVTVSSGTGGSGGTGSGTGGSTDIQMTQSPSSLSASVGDRVTLTCRASQGIGTWLAWYQQKPGKAPKLLIYSASSLQSGVPSRFSGSGSGTDFTLSISNLQPEDFATYYCQQANSFPITFGQGTRLEIK
B8: SC06-388 (scFv)
scFv: EVQLVETGAEVKKPGESLRISCKGSGYSFTSYWIAWVRQMPGKGLEWMGVIYPGDSDARYSPSFQGQVTMSVDKSISTAYLQWSSLKASDTAMYYCAKLRSKNTGLDYWGQGTLVTVSSGTGGSGGTGSGTGGSTQSALTQPPSASGSPGQSVTISCTGTSSDVGGYNFVSWYQQHPGKAPKLMIYEVSNRPSGVPDRFSGSKSGNTASLTVSGLQAEDEADYYCSSYAGNNNLAFGGGTQLTVL
B9: SC06-071 (scFv)
scFv: EVQLVESGGGVVQPGRSLRLSCAASGFTFSSYGMHWVRQAPGKGLEWVAMIWSDGSNKYYADSVKGRFTISRDNSKNTLYLQMNSLRVEDTAVYYCASNYGSGSYWGGFDYWGQGTLVTVSSGTGGSGGTGSGTGGSTQSALTQPASVSGSPGQSITISCTGTSSDVGGYNLVSWYQQHPGKAPKLMIYEGSKRPSGVSNRFFGSKSGDTASLTISGLQAEDEADYYCSSYTTSSTHVFGTGTKVTVL
B10: SC06-389 (scFv)
scFv: QVQLVQSGAEVKKPGESLKISCKGSGYSFSTYWIGWVRQMPGKGLEWMGIIYPGDSDTRYSPSFQGQVTISADKSISTAHLQWSSLKASDTAMYYCARPGPRGYNHGFDYWGQGTLVTVSSGTGGSGGTGSGTGGSTSSELTQDPAESVALGQTVKITCQGDSLRRYYASWYQQKPGQAPVLVIYGKNNRPSGIPDRFSGSRSGNTASLTITGAQAEDEAVYYCNSRDSSGNSVVFGGGTKLTVL
B11: SC06-079 (scFv)
scFv: EVQLVESGGGLVQPGGSLRLSCAASGFTFSSYAMSWVRQAPGKGLEWVSAISGTGGSAYYADSVKGRFTISRDNSKNTVYLQMNSLRAEDTAVYYCAKGHSSGTNWGQGTLVTVSSGTGGSGGTGSGTGGSTSYVLTQPPSASGTPGQRVTISCSGSSSNIGSNFVYWYQQLPGTAPKLLIYRNNQRPSGVPDRFSGSKSGTSASLAISGLRSEDEADYYCAAWDDSLSGVLFGGGTQLTVL
B12: SC05-159 (scFv)
scFv: QVQLVQSGAEVKKPGATVKISCKVSGYTFTDYYMHWVQQAPGKGLEWMGLVDPEDGETIYAEKFQGRVTITADTSTDTAYMELSSLRSDDTAVYYCARAEVMTTINNWYFDLWGRGTLVTVSSGTGGSGGTGSGTGGSTSYVLTQPPSASGTPGQRVTISCSGSSSNIGSNNVSWYQQLPGTAPKLLIYSNNQRPSGVPDRFSGSKSGTSASLAISGLQSEDEADYYCAAWDDSLNGWVFGGGTKLTVL
B13: SC06-252 (scFv)
scFv: EVQLVETGGGLVQPGGSLRLSCAASGLTFSSYAMSWVRQAPGKGLEWVSALSGSTTFYADSVKGRFTISRDNAKNTLYLQMNSLRAEDTAVYYCARGNYYGMDVWGQGTTVTVSSGTGGSGGTGSGTGGSTSYVLTQPPSASGTPGQRVTISCSGSSSNIGKFYVYWYQQFPGAAPKLLIYSNNQRPSGVPDRFSGSKSGTSASLAISGLQSEDEADYYCAAWDGSLNGYVFGTGTKVTVL
B14: SC06-077 (scFv)
scFv: QVQLVQSGAEVKKPGSSVKVSCKASGGTFSSYAISWVRQAPGQGLEWMGGIIPIFGTANYAQKFQGRVTITADESTSTAYMELSSLRSEDTAVYYCAREGGVGPAFDIWGQGTMVTVSSGTGGSGGTGSGTGGSTDIQMTQSPDSLAVSLGERATINCKSSQSVLHNSNNKNYLAWYQQKPGQPPKLLIYWASTRESGVPDRFSGSGSGTDFTLTISSLQAEDVAVYYCQQYYGSPYTFGQGTKLEIK
B15: SC06-415 (scFv)
scFv: EVQLVESGGGLVQPGRSLRLSCAASGFTFDDYAMHWVRQAPGKGLEWVSGISWNSGSIGYADSVKGRFTISRDNAKNSLYLQMNSLRAEDSAVYYCARGGQRFDFWGQGTLVTVSSGTGGSGGTGSGTGGSTQSALTQPPSASGSPGQSVTISCTGTSSDVGGYNYVSWYQQLPGKAPKLLIYDVNNRPSGVSNRFSGSKSGNTASLTISGLQAEDEAEYYCGSSVGSRLRIFGGGTKLTVL
B16: SC06-402 (scFv)
scFv: QVQLVQSGAEVKKPGESLKISCKGSGYSFTSYWIGWVRQMPGKGLEWMGIIYPGDSDTRYSPSFQGQVTISADKSISTAYLQWSSLKASDTAMYYCARWGGVCSSTSCPNRDAFDIWGQGTMVTVSSGTGGSGGTGSGTGGSTQSALTQPRSVSGSPGQSVTISCTGTSSDVGGYNYVSWYQQHPGKAPKLMIYDVSNRPSGVSNRFSGSKSGNTASLTISGLQAEDEAEFHCSSYRSSGASPVVFGGGTKLTVL
B17: SC06-246 (scFv)
scFv: EVQLVESGGGLIQPGGSLRLSCAASGFTVSSDFMTWVRQAPGRGLEWVSLIYSGGKTNYADSVKGRFTISRDNSRNTLYLQMNSLRAEDTAVYYCARSVCSTISCSKLDDWGQGTLVTVSSGTGGSGGTGSGTGGSTQAVLTQPSSVSVAPGQTARITCGGNNIGRKSVHWYQQKPGLAPVLVVNDNSDRPSGIPARFSGSNSGNTATLTISRVEAGDEADYYCHVWGSSRDHYVFGTGTKVTVL
B18: SC06-198 (scFv)
scFv: QLQLQESGPGLVKPSETLSLTCAVSGYSITSGYYWGWVRQPPGKGLEWIGSIYHTGSTYYNPSLKSRVTISVDTSKNQFSLKLNSLTAADTAVYFCASQSPAFDFWGQGTMVTVSSGTGGSGGTGSGTGGSTQSVLTQPPSVSGAPGQRVTISCTGSSSNIGTGYDVHWYQQLPGTAPKLLIYGNNNRPSGVPDRFSGSKSGTSASLAITGLQAEDEADYYCATWDDSLNGWVFGGGTKLTVP
B19: SC06-191 (scFv)
scFv: EVQLVESGGGVVQPGRSLRLSCVASEFTFSNYGMHWVRQAPGKGLEWVAVIWYDGSNEDYADSVKGRFTISRDNSKNTVYLHMNSLRAEDTAVYFCTRGQYSSTWFLDYWGQGTLVTVSSGTGGSGGTGSGTGGSTDIQLTQSPSTLSASVGDRVTITCRASQSISSWLAWYQQKPGKAPKLLIYKASSLETGVPSRFSGSGSGTDFTLTISSLQPEDFATYYCQQANSFPLTFGGGTKVDIK
B20: SC06-078 (scFv)
scFv: EVQLVESGAEVKKPGSSVKVSCKASGGTFSSYAISWVRQAPGQGLEWMGGIIPIFGTANYAQKFQGKVTITADESTSTAYMELSSLRSEDTAVYYCARLSPRYYGMDVWGQGTTVTVSSGTGGSGGTGSGTGGSTQSALTQPRSVSGSPGQSVTISCTGTSSDVGGYNYVSWYQQHPGKAPKLMIYGGSERPSGVSNRFSGSKSGNTASLTISGVQAEDEADYYCSSYTSSGTLLFGGGTQLTVL

Target: T1, BSA (bovine serum albumin) (bovine (송아지 혈청 알부민), UniProt P02769 25-607)
T1 construct: Negative control antigen of the phage ELISA; also called 송아지 혈청 알부민
T1 sequence (P02769 25-607 limits assumed): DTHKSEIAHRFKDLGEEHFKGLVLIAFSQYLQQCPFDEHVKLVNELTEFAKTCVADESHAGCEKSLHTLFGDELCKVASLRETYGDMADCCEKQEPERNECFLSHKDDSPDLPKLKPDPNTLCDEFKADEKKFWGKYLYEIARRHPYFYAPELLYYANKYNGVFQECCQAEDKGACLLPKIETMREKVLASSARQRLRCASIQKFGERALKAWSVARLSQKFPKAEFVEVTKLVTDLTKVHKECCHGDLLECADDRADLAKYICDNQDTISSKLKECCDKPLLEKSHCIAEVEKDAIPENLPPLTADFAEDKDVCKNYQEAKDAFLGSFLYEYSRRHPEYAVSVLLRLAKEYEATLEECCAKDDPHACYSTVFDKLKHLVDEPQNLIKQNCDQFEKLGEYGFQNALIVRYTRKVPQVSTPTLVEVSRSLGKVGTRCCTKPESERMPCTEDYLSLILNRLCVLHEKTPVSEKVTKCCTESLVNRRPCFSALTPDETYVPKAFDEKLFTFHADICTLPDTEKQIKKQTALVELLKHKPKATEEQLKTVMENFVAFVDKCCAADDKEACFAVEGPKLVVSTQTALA
Test: phage ELISA, 1% BSA coated, anti-M13 peroxidase, OD 492 nm

Binder | binding result
B1 | no binding
B2 | no binding
B3 | no binding
B4 | no binding
B5 | no binding
B6 | no binding
B7 | no binding
B8 | no binding
B9 | no binding
B10 | no binding
B11 | no binding
B12 | no binding
B13 | no binding
B14 | no binding
B15 | no binding
B16 | no binding
B17 | no binding
B18 | no binding
B19 | no binding
B20 | no binding
